Here are results for 17 molecules from patent publication US20200247855A1, “THERAPY AND DIAGNOSTICS” (OXFORD UNIVERSITY INNOVATION LIMITED, priority 2017, published 2020).

The labels stand for the following.
T1: CXCL9_HUMAN (Homo sapiens, UniProt Q07325)
T1 sequence (Q07325 23-125): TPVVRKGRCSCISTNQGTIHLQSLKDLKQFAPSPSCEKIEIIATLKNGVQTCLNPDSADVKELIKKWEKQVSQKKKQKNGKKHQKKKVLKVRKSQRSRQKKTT

T2: CXCL10_HUMAN (Homo sapiens, UniProt P02778)
T2 sequence (P02778 22-98): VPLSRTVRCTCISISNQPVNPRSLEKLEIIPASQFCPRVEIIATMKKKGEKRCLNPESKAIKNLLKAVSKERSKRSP

T3: CXCL1_HUMAN (Homo sapiens, UniProt P09341)
T3 sequence (P09341 35-107): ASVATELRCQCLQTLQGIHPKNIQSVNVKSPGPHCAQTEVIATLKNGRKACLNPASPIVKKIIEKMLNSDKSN

B1: P1095_IXORI: novel CXC-binding tick CKBP, Ixodes ricinus (protein, listed as Ixodes ricinus)
chain: HSPVAGSEVQKLTSDPNDDIDVSYCGMNCTVVNGKSDECSENCKCLHEGDDPKGICVAITYFGDWGDPNDDPKINEATPQTQIFEKKRK
B2: P1080_IXORI: novel CXC-binding tick CKBP, Ixodes ricinus (protein, listed as Ixodes ricinus)
chain: SAGSKGSSAPQSSGDSVVAEFCDTNCTMKKDGKWTECNGDCFCVHVGNETVGRCMRLDGDYDYTSSKTTRRNKKTRNGLCRLDRNRTTVDYPERNTREP
B3: P458_IXORI: novel CXC-binding tick CKBP, Ixodes ricinus (protein, listed as Ixodes ricinus)
chain: GSKQPGAAGSSSDSVEAVFCPTNCTKGTNGAWSGCSDDCICVHVGENTEGSCMKFSGDYDYPTPEA
B4: P1074_IXORI: novel CXC-binding tick CKBP, Ixodes ricinus (protein, listed as Ixodes ricinus)
chain: GSKESSAHQSSDDSIKAEFCDAKCTMKTDGKWTQCHGGCFCVHVGNETEGRCMRLDGDYDYPSTQPEE
B5: P1126_AMBCA: novel CXC-binding tick CKBP, Amblyomma cajennense (protein)
chain: KPQILQRTDKSTDSEWDPQTCPETCIPSKNITCSDGCVCVKLGEEEEGTCFNMTGVDWLGSPSDD
modifications: Amblyomma cajennense
B6: P1100_IXORI: novel CXC-binding tick CKBP, Ixodes ricinus (protein, listed as Ixodes ricinus)
chain: GSKGSSASQSSDNSVVAKFCDTNCTINEGGKWTECKGGCFCVHVGNETVGRCMKLDGDYDYPSPKPEE
B7: P1096_IXORI: novel CXC-binding tick CKBP, Ixodes ricinus (protein, listed as Ixodes ricinus)
chain: HTTVTGSVEGKPNNPNEDIEVSYCRMNCTVENGVSSACSGDCVCVHRDNEPNGICVEITYFGDFGDPSQDPSIDEAAPRESVSKRRSNGES
B8: P1134_IXORI: novel CXC-binding tick CKBP, Ixodes ricinus (protein, listed as Ixodes ricinus)
chain: NEEVFTVEYCGMNCTQKSDGTWTECSGKNKDCRCYHESDAREGLCLSTEYTDFSQFETPSNSDLEAATPRPRKTLYPVRNPHGPKTRGLGYDKRILRDRVKFLI
B9: P1101_IXORI: novel CXC-binding tick CKBP, Ixodes ricinus (protein, listed as Ixodes ricinus)
chain: HTTVAGSDEDIEVSYCGMNCTVESGKSSKCSPDCVCVHEGNERDGICISITYLGDLGNPLEDPSIDLATPLAPVFQSSK
B10: P1219_IXORI: tick CKBP, Ixodes ricinus (protein, listed as Ixodes ricinus)
chain: ASLAKETEDTTLPARALVDSPDSDNCSSPQLPYFDELTYMPLGFLAVNCTKTCPVGKNGTVVNGNKCIVTWSILDVSTITVLVGSCKNGYCISDGSSECRNITLAGEDSQEEEEEAEEDEEEDDGDEEEDEEEDEEENDDD
B11: P1224_IXORI: tick CKBP, Ixodes ricinus (protein, listed as Ixodes ricinus)
chain: SDLCKMEAESSPFKLPQSSLLDAPDEEGCKYQLLFVEAEGPLVVNCTKDCPNGKIRTVVEGELCIAMVKTSSSGEATGLVGSCKRGSCVKKDDPCRTFTLSEEGDDDEEDEEEEEDEEEDEEEDEEEEEEDEEEED
B12: P1166_IXORI: novel CXC-binding tick CKBP, Ixodes ricinus (protein, listed as Ixodes ricinus)
chain: GPETKEDKKSDVYELFTVEYCGTNCTLLTNGRWTACTGKKGTCRCYHESGEKVGLCLSTEYTDFSEYPNPKSSEIDAAAPLPRETH
B13: P1104_IXORI: novel CXC-binding tick CKBP, Ixodes ricinus (protein, listed as Ixodes ricinus)
chain: ESKEASASQGPGKSFKVEFCETNCTENNGVWSGCTGDCICVSVGDSKEGRCMDLGDKVIDTPVAQG
B14: P1132_IXORI: novel CXC-binding tick CKBP, Ixodes ricinus (protein, listed as Ixodes ricinus)
chain: LSDEDELFSVEYCGTNCTKQDTGSWTTCSGNCTCYHEDGKKVGLCLSTEYTDFTKFPKPTSEEIANARPLPKREKTLN
B15: P1162_IXORI: novel CXC-binding tick CKBP, Ixodes ricinus (protein, listed as Ixodes ricinus)
chain: LNDEELFTVDYCGTNCTQQPNGSWTTCPGNCSCYHEDGKTDGFCLSTEYTDFTQFPNLTSEEMDAATPRPE
B16: P1077_IXORI: novel CXC-binding tick CKBP, Ixodes ricinus (protein, listed as Ixodes ricinus)
chain: GSKQLIGPQSSTNSIKAEFCDTNCTAGTNGIWNGCSGDCFCTHVGNSTEGRCMKITGFDEYPTSEAEE
B17: P1229_IXORI: novel CXC-binding tick CKBP, Ixodes ricinus (protein, listed as Ixodes ricinus)
chain: DDEFFTVDYCGMNCTLQQDGSWTPCTQKNAECKCYHESGSSVGLCLSTAYTDFNQFGDPNNSDLDAATPRHPDASSR

Sequence of CXCL12_HUMAN (P48061 22-93): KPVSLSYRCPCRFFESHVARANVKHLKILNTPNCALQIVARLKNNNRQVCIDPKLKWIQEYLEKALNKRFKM

The first test has as its target CXCL12_HUMAN (Homo sapiens, UniProt P48061). Kind of test: Yeast surface display (YSD) FACS binding. The following applies: FACS re-test; mean percent shift where several clones. Here is the method:
(§1) Table 1. Tick CKBPs described in PCT/GB2017/050563 and [17]. Tick peptide sequences isolated in yeast surface display fluorescent-activated cell sorting (FACS) screens using a labelled chemokine. Identity with Evasin-1, 4 or 3 was calculated using BLAST. Abbreviations: IXORI—Ixodes ricinus, RHISA—Rhipicephalus sanguineus, AMBMA—Amblyomma maculatum, AMBPA—Amblyomma parvum, AMBTR—Amblyomma triste, AMBAM—Amblyomma americanum, AMBCA—Amblyomma cajennense, RHIPU—Rhipicephalus pulchellus. Table 2A-C. Binding characteristics of tick CKBPs previously disclosed (PCT/GB2017/050563 and [17]). All members of the human chemokine family[164] are listed in column 1. Binding to human chemokines was determined for 14 tick CKBPs using biolayer interferometry (BLI) with calculated Kd shown as Molar (Moles/Litre). Binding data for 17 other novel tick CKBPs was assayed using yeast surface display[17,166],with positive binding results shown as “YES”. For biolayer interferometry, His-tagged purified tick CKBP was bound to a Ni-NINTA sensor on an OctetRed® 384 system, and then binding to each chemokine listed (with the exception of CCL25, CCL26, CXCL16, CXCL17, CXCL4L1, XCL2) was assayed in a cross-binding screen at a chemokine concentration of 300 nM as described. For those chemokines showing binding to a tick CKBP in the cross-binding screen, binding assays were repeated using different doses of chemokine. Association, equilibrium and dissociation data were analysed using Octet software to create corresponding fitted curves, and used to calculate Kd. For yeast surface display, (YSD) background fluorescence was controlled for by using either an empty vector or by omitting the chemokine (i.e. using streptavidin-Alexa647 alone). An arbitrary threshold of >3 fold over background mean fluorescence intensity was chosen to describe confirmed re-tests. Where binding was detected data are indicated as “YES”. […] For yeast surface display data, empty cells represent chemokines that were not tested. Binding data published in relation to previously described tick CKBPs (Evasins-1, 4 and 3) is also shown for comparison in each of FIGS. 2A-C, with the relevant data obtained from publications: [20-22,32]. Table 3: Neutralisation of human chemokines by tick CKBPs previously disclosed (PCT/GB2017/050563 and [17]). Neutralising activity was determined using a quantitative THP1 cell migration assay in a 96-well Boyden chamber with chemokine in the bottom chamber as described. Cells migrating through to the bottom chamber at 4 hours were counted using flow cytometry in a 96 well plate format. IC50 for neutralisation was determined at the chemokine EC80 dose as determined using a range of tick CKBP concentrations. Data was analysed using GraphPad Prism to determine IC50, which is shown as Molar (Moles/Litre). Empty cells represent experiments not done. Table 4—Other previously described tick CKBPs. Tick CKBPs that were also described in PCT/GB2017/050563 and Singh et al. are indicated in “Notes”. Table 5.—Novel tick CKBPs of the invention. Table 6. […] The peptide sequence prefix indicates the identity, and suffix indicate the tick species as follows: AMBCA, Amblyomma cajennense and IXORI, Ixodes ricinus. […] Certain tick peptides e.g. P1074_IXORI were recovered from screens performed with more than one chemokine. Individual yeast clones recovered from the library were re-tested using a FACS (fluorescence activated cell sorting), experiment. The binding of the peptide to the chemokine was assayed by measuring the percent (%), of yeast cells expressing the given peptide that exceeded a background threshold set by measuring the fluorescence of the yeast library pool treated with streptavidin-[…] alone. When more than one independent yeast clone was isolated for a given peptide-chemokine combination, the mean percent shift was calculated and reported in column 3. […]
For B1, the “Chemokines bound in yeast surface display and % cells over threshold fluorescence: CXCL12_HUMAN” value is “CXCL12_HUMAN 47%”.

With B2, the “Chemokines bound in yeast surface display and % cells over threshold fluorescence: CXCL12_HUMAN” value is “CXCL12_HUMAN 53%;”.

In another test the target is T1, CXCL9_HUMAN. The experiment in a line: Yeast surface display (YSD) FACS binding. The note with it: FACS re-test; mean percent shift where several clones. How it is done: as §1
Regarding B3, the “Chemokines bound in yeast surface display and % cells over threshold fluorescence: CXCL9_HUMAN” value is given as “CXCL9_HUMAN 37%”.

Turning to B4, the “Chemokines bound in yeast surface display and % cells over threshold fluorescence: CXCL9_HUMAN” value is “CXCL9_HUMAN 35%”.

Consider B5, for which the “Chemokines bound in yeast surface display and % cells over threshold fluorescence: CXCL9_HUMAN” value is on record as “CXCL9_HUMAN 56%”.

For the molecule B6, the “Chemokines bound in yeast surface display and % cells over threshold fluorescence: CXCL9_HUMAN” value is reported as “CXCL9_HUMAN 55%”.

Consider B2, for which the “Chemokines bound in yeast surface display and % cells over threshold fluorescence: CXCL9_HUMAN” value was “CXCL9_HUMAN 49%”.

In a further test the target is T2, CXCL10_HUMAN. Kind of test: Yeast surface display (YSD) FACS binding. The following applies: FACS re-test; mean percent shift where several clones. How it is done:
as §1
On to B7, for which the “Chemokines bound in yeast surface display and % cells over threshold fluorescence: CXCL10_HUMAN” value is “CXCL10_HUMAN 50%”.

As to B8, the “Chemokines bound in yeast surface display and % cells over threshold fluorescence: CXCL10_HUMAN” value is reported as “CXCL10_HUMAN 66%”.

Consider B9, for which the “Chemokines bound in yeast surface display and % cells over threshold fluorescence: CXCL10_HUMAN” value is listed as “CXCL10_HUMAN 75%”.

The test is the same for the next values; noted with them: yeast surface display.
Take B10: the “Binding to CXCL10_HUMAN, YSD” value was “YES (An arbitrary threshold of >3 fold over background mean fluorescence intensity was chosen to describe confirmed re-tests. Where binding was detected data are indicated as “YES”)”.

On to B11, for which the “Binding to CXCL10_HUMAN, YSD” value is “YES (An arbitrary threshold of >3 fold over background mean fluorescence intensity was chosen to describe confirmed re-tests. Where binding was detected data are indicated as “YES”)”.

The target of the next test is T3, CXCL1_HUMAN. Kind of test: Yeast surface display (YSD) FACS binding. The arrangement: label (chemical). The following applies: FACS re-test; mean percent shift where several clones. How it is done: as §1
With B12, the “Chemokines bound in yeast surface display and % cells over threshold fluorescence: CXCL1_HUMAN” value is on record as “CXCL1_HUMAN 63%”.

Turning to B13, the “Chemokines bound in yeast surface display and % cells over threshold fluorescence: CXCL1_HUMAN” value is on record as “CXCL1_HUMAN 65%”.

B14: the “Chemokines bound in yeast surface display and % cells over threshold fluorescence: CXCL1_HUMAN” value is reported as “CXCL1_HUMAN 68%”.

Consider B15, for which the “Chemokines bound in yeast surface display and % cells over threshold fluorescence: CXCL1_HUMAN” value is listed as “CXCL1_HUMAN 72%”.

Consider B16, for which the “Chemokines bound in yeast surface display and % cells over threshold fluorescence: CXCL1_HUMAN” value is given as “CXCL1_HUMAN 50%”.

For B17, the “Chemokines bound in yeast surface display and % cells over threshold fluorescence: CXCL1_HUMAN” value is on record as “CXCL1_HUMAN 66%”.
